# Experimental data published in the DeepSol protein solubility set.
# Test: soluble on expression in E. coli; label from the status in PepcDB or PDB records
row,Sequence,soluble on expression in E. coli
1,MKEMVGGCCVCADENGWTDNPLIYCDGENCEVAVHQGCYGIQEVPEGEWFCAKCTKASAMMPGSINEATFCCQLCPFDYGALKKTDRNGWAHVICALYIPEVRFGNVHSMEPVILNDVPTDKFNKLCYICNEERPNDAKKGACMSCNKSTCKRSFHVTCAQRKGLLCEEGAISRNVKYCGYCENHLKKAINDPAIKVIPACPPVQRLSKEQDKKKTVLLTSLPLPPPAPRLHMLADPLPIKSNKVNNVLGLGSAINAVSLEERPASGSTVNSGIFVPPPTAFSPPLTTSSRSSVAQDPSPPLTINKNSLSSSGPLIPSTAHLSATTASATPIMANGSTLPPSSETTVGTHCLQQLQIQSAAAAAITQNQIGPSELNGYPAASQLSSFMHEIPARNTTSVASLLPPGAAEYHLNGSGDEEKTVKAVLTAPLTKAKRIRDSKNDMMDKTHKRPRANARPPAVLGSMSSGSSGGTVGKSPSMQRLQNLVAPIVSETVTDFQRDRVADRTAAERRAAAAQSQPSTSTNGGPNVTIPAVVEVHTNSTNSTNHQNNGLTQNAPASTSMQAGTSSNDGVISQNGTSSTSQSNRLNLPSFMEQLLERQWDQGSSLLMANAHFDVAQLLSCLFQLKSENFRLEENLSGLRKRRDHLFALNSRLAEVNTLDVSKRQRSDGLLLQQQIAHHLDPTSIVPKAEVHKQEPLSAPTSVPLPANHSSSLFEDIKAPKATYSRKTPSNIPLTVPLSTAATALTTTTAASSGAPVNSNIQNHRATPSTAGAPMAATPIMTAVTSANELAALSPERAQALLNMYRMPLDANVAAQLSMITNFPGQVNPSLFSRLLAVNMMNGGLQPNGQPLSALPPPTSATPNGK,soluble
2,MLKVFADRGGTFTDIVAVTHNQEIIERLSKSTERFLIVPLPNQEWIIVYKLLSENPEQYQDAVIQGIRDIIGLSRNEPISDEAIEVVKMGTTVATNALLERKGDRVVLLITTGFKDALRIGYQNRPNIFAQRIVLPTMLYEQVIEVEERYDAQGNELTPVNIAQVKEDLQAVYHTGIRSCAIILMHSDRYPIHEQQVAQIAQEIG,not soluble
3,MSLPEDYWSAKDYQRNASFVPKLTKDIVKRINLSSSDELLDLGCGDGVLTNELVSQCRRVVGIDASPDMIKAARELGLNAYVIPGEKLLDASEIPSESFDVVFSNAALHWIMRQPKNRPIVMKGVSRVLRTKGRFVAECGAFGNVSEVVGSIYSILLALGATKEQIDQANPWFFGSEDDYTRMLEEAGFHVEYVENISRPTLLNKDVREWLDTFAQHFYHAFPQWKDIIRETVYNALLVTDCRSDGKWFLQYRRLRFVAHKEEGHHHHHH,soluble
4,MLTMKFLVPVDFSEITNPLLRTVKRVGEKVDCEVHLLHVIPPVLYLPYPETMGVSVIDIELLEKLEDEKKAEAKEKLKALEEFLKPVKARSHVDVGDPADVILDYEEKLNPDMVFLGGHKKGLIEKLLIGSTTEKVVKHGKKSDFVIKGSEVEFRKKVVIAYDFSKTAQKTAEFALKFLKNFKVSVEIVHVHESIEMPLIEKLKHKIEKEFSEEKKKILNELKGRFEEEGIKTEVKFLEGEDAVDVISSYVNETPEVELLIIGSKGLSGLKKLILGRTATKLLGKVNKPILIYKVQE,soluble
5,MQQYAQRDKKHEYWFAVPQERTDHLYAFFIQWSPEIYAEDTGEYTREPGFIVVKKIEESETIEDSSNQAAAREWEITTREDINSKQVATVKADLESESFRPNLSDPSELLLPDQIEKLTKHLPPRTIGYPWTLVYGTGKHGTSLKTLYRTMTGLDTPVLMVIKDSDGQVFGALASEPLKVSDGFYGTGETFVFTFCPEFEVFKWTGDDMFFIKGDMDSLAFGGGGGEFALWLDGDLYHGRSHSCKTFGNRTLSKKEDFFIQDIEIWAFELEHHHHHH,not soluble
6,MTFRPFWLDQALRSEHAAPCPPLAGDTRADVCIVGGGYTGLWTAIMLKEHDPGLDVVLVEADLCGAGASGRNGGCALSWSAKFFTLERLFGLTEAIRLVKASEDSIRAIGAFCQRYDVEADYRLDGTLYTATNPAQVGSTDSVIAALERHGINSFAKRPLADVQRLAGSRRHLEGWFSPAAATVQPGKLVRGLRRVALQLGVRLYEGTPMRGLEHGRPAEVVTPHGRVVAGRVVLALNAWMARAFPQFERSVAIVSSDMLITEPRPDLLQEIGLTSGVSVLDSRIFVHYYHNTPDGRLMLGKGGNTFAYGGRMLPVFDRPSPYLGQLRGSLREFFPEFAEVAIEASWNGPSDRSVTGLPFFGRLDGRDNVFYGFGYSGSGVGPCHMGGQILSSLALGLDNPWTRSPLTQGPLGRFPPEPIRYVGSLMVRNAIRRKEHAEDAGRRPRHLDVRLARFAAAAGKADKGLEHHHHHH,not soluble
7,MGSDKIHHHHHHMGAVVVKDLRKRIGKKEILKGISFEIEEGEIFGLIGPNGAGKTTTLRIISTLIKPSSGIVTVFGKNVVEEPHEVRKLISYLPEEAGAYRNMQGIEYLRFVAGFYASSSSEIEEMVERATEIAGLGEKIKDRVSTYSKGMVRKLLIARALMVNPRLAILDEPTSGLDVLNAREVRKILKQASQEGLTILVSSHNMLEVEFLCDRIALIHNGTIVETGTVEELKERYKAQNIEEVFEEVVKCSENF,soluble
8,GSHMMGAKMAESLRLTCLACGQANKVPSDRLAAGPKCGICGAGLITGKVAGIDPAILARAERDDLPLLVDFWAPWCGPCRQMAPQFQAAAATLAGQVRLAKIDTQAHPAVAGRHRIQGIPAFILFHKGRELARAAGARPASELVGFVRGKLGARA,soluble
9,IDFRTNKSKDAVIVVELASPAAIVDVKRVQEGLSIDLMNTSVKDEQLYLLDVKDFATVVESVEVFRDTSTTRLVAYIDEEYTHDYRLTGRYLEITVSKLKPNEKV,not soluble
10,MGCSSQTHSSQKETTIPVTLHVEDAKGLPVEGVQVTIVKAPSSDEEPSTEIGEILGKTDKNGDIKWDTGRKGDYSVALTKGETSVTHHISLTEDKKDHAIPLVFKELEHHHHHH,soluble
11,MAKIYYDEDASLDILKDKVIAILGYGSQGHAHALNLRDSGLNVIIGLHEGSRSREKAKADGFEVYTPREAAKRADIIMFLIPDTVQPEVYKNEVEPELNSSKTLAFAHGFNIHFRQIVPPKDVDVFMVAPKGPGHLVRWMYTEGKGVPALVAIHQDASGTCKDKALAYAKGIGATRAGVIETTFKEETETDLFGEQMVLCGGVTALIKAGFETLVNAGYQPEVAYFECLHELKLIVDLIYEHGISGMRYSISDTAKYGDVTRGERIYKVVKPVMEKTLEEIQKGEFAREWILENKAGRPVYYALLERDREHLVEKVGEELRKMMPWLGKKELK,soluble
12,MAMQLEICANSAASCRQAELGGATRVELCAGIPEGGTTPSAGEMAVARSLIAIPIHVIIRPRAGDFVYSSEEIEAMCYDIRVVRSLGMEGVVFGCLTPEGGYDEEANSRLLKEAQGMQLTFHRAFDVCAAPFEMLEKLIAAGFHRVLTSGCAPTALEGKDMIGALNKQATGRIGIMAGCGIRLGNIETLARHTGITQFHSSLRHDIPSSMRFRRPEVSMGGTVKIDEYSRPETSADMVRQAVDILQGILEHHHHHH,not soluble
13,MDRIQENQKKATNLCELYADGNDDDSEKEQQDRGLDAQFLLRSTPEDVEKYMIHVRKQLMEGEGECLVELGAPINSNSKNPKSGLSEEDLDKAADAQLKILEKIPAVGTKVIRRKQTGGGSLFTEVWIIRDPPTEKDFIEARVAVVGNVDAGKSTLLGVLTHSALDDGRGAARTKLFRHKHEFESGRTSSVGNDILGFDVHGNIVNKPDPHNHNLDWVQIGSDCAKLVTFIDLAGHEKYLKTTIFGMTGHMPDYTMLMIGANMGIIGTTKEHLSLALSLHVPVYLVVTKIDMCPANILEETMKNITRLVRSAKKLPILVRNMDDVVHAAVNFPSKKVCPIFQVSNVEGTNLPLLRQFLNIVPLRRQLNENDPAHFQIDDIYWVDGVGTIASGTLLSGTIRLNDILLLGPTSNGDFMPIPIKSIHRKRMPVGIVKCGQSASFALKKIPKKDVRKGMVLVDPKVKPVASMVFEAEILVLHHPTTIKPNYQAMLHIGSVRQTATLVSMGKEVLRTGDRDKVQFKFIRQPEYIRPGTKMVFREGRTKAVGTVSSVVPQESLAQQRAKQKDGRQKQYGKKSMGPKPPNGKPKEKIEKKLDALSIEQLTSAASTSTSST,not soluble
14,SSEQTLEYFLNKGTIRRKDAADIEWYHAANSKSKLMEALRGSAQMIEADVLLRGADPEEPIMAHPPAKDSDITLQDWLKEVVKTDKGIKLDFKSLAAVSQSMSLLEEIRDQLKGPVWINADILPGPGGTATPVDPHVFLQEVAQRSENDVLSLGWTTGWTANVDNPGYSWEMVHQMEELCRPLKQPVTFPVRASLLPMSFPQFQWLLEQSDRSEILH,soluble
15,MRVAIPAEDDRGIKSNVSKHFGRSRYFVFVDIEGEDVKNVEVVEVPFEEHGPGDLPNFIKDHGAKIVLTYGIGRRAIEYFNSLGISVVTGVYGRISDVIKAFIGGKLKIDYDWKEKIEKEH,soluble
16,MSLTDVMFKSQIANQLKNLRKSRGLSLDATAQLTGVSKAMLGQIERGESSPTIATLWKIASGLEASFSAFFANDPQLLSSERSFPDDLNMKIHTLFPYAADTGLEIFEITLLDHHQQMSSPHALGVIEYIHVLEGIMKVFFDEQWHELQQGEHIRFFSDQPHGYAAVTEKAVFQNIVAYPRREGGSHHHHHH,soluble
17,MRKPTYHQINPLIRLKETELLSEQQFQQLLEAETVEDVRNMLKSTVYQPYLTETFEEKFDYHSSEALGSLYRWLYEMAPEPAVVTLYTMRFTFHNLKILTKAERTGKDFDYLYLEDGRYSLNTVKSAIHTKNSSELEPALLEVIRDVFAYLEEGGLPQAIDILYDRAFLQQQRKLADELGYEELTKEVIAFIDLTNLSTMARGIVQHQNSNFLSTVLSSAGSITKKELLTYAEKSLVEFTAFVRTTNYGQLLEKIINKETNELNLLAFEKLKDDYLTSMYENGRTVAFGPLPLLAFLNAKEVEWKNLRLILVGKHSGFSNEKIRERMRKVNGV,not soluble
18,GPLGSEAQSEKEEAPKPLHKVVVCVSKKLSKKQSELNGIAASLGADYRWSFDETVTHFIYQGRPNDTNREYKSVKERGVHIVSEHWLLDCAQECKHLPESLYPHTYNPK,soluble
19,SHMAIVKVTDADFDSKVESGVQLVDFWATACGPCKMIAPVLEELAADYEGKADILKLDVDENPSTAAKYEVMSIPTLIVFKDGQPVDKVVGFQPKENLAEVLDKHL,soluble
20,MSLRISTNQIYQRGLDNLLTQQERLARLQDQQASGIRVRTPSDDPVASAQIELIKQRINNIELFQNNRQAADSALRLEEGILSNAVNSLHRLREIQIQAGNPSLSEEDRKTLAVEAQALLNQLLDYANTKDSNGSYMFSGSKSLTQPVSLNLSGQYVYNGDSTQRFQAVTTSLLVAVNDTGDNVFMRIPSGNGRFAIRETLTPNTGTASVSSGSVTNEAAFVPDNYTMTFALNSQGNLVVMVSGTLSGNVIPPSGLPDDAPLYQEGSAIGFNGMEMVVSGLPKAGDSFSISPAKNESIFSTVQRMINNLNKPYTSSVEKAATQTENNQLLAQIDSALGHILSVQSDLGARLNQLETAEKANNDYLDISAATLKKLREIDEGHHHHHH,soluble
21,MKNIIRTPETHPLTWRLRDDKQPVWLDEYRSKNGYEGARKALTGLSPDEIVNQVKDAGLKGRGGAGFSTGLKWSLMPKDESMNIRYLLCNADEMEPGTYKDRLLMEQLPHLLVEGMLISAFALKAYRGYIFLRGEYIEAAVNLRRAIAEATEAGLLGKNIMGTGFDFELFVHTGAGRYICGEETALINSLEGRRANPRSKPPFPATSGVWGKPTCVNNVETLCNVPAILANGVEWYQNISKSKDAGTKLMGFSGRVKNPGLWELPFGTTAREILEDYAGGMRDGLKFKAWQPGGAGTDFLTEAHLDLPMEFESIGKAGSRLGTALAMAVDHEINMVSLVRNLEEFFARESCGWCTPCRDGLPWSVKILRALERGEGQPGDIETLEQLCRFLGPGKTFCAHAPGAVEPLQSAIKYFREEFEAGIKQPFSNTHLINGIQPNLLKERWLEHHHHHH,not soluble
